Laboratory results as given in patent publication US20110177070A1 (EMERGENT PRODUCT DEVELOPMENT SEATLLE, published 2011).
Values belong to the binder of their own block, whether it stands above or below them.

Legend:
[1] = target: Xceptor fusion protein TRU(XT6)-1042; assay: sandwich ELISA: Xceptor captured on anti-human IgG-Fc, sIL-6R, anti-human IL-6R-biotin
Procedure: Added to each well of a 96-well plate was 100 μl goat anti-human IgG-Fc (ICN Pharmaceuticals, Costa Mesa, Calif.) from a 2 μg/ml solution in PBS, pH 7.2-7.4, The plates were covered, and incubated overnight at 4° C. After washing four times with PBS-T, 250 μl Blocking buffer (PBS-T with 3% BSA or 10% normal goat serum) was added to each well, the plate was covered, and incubated at room temperature for 2 hours (or at 4° C. overnight). After washing the plate three times with PBS-T, added in duplicate wells to the anti-human IgG-Fc coated plate was 100 μl/well Xceptor TNFRSF1B::anti-HIL6 samples, positive control anti-human IL-6R(R&D Systems, Minneapolis, Minn.) and negative controls human IgG or human gp130-Fc chimera (R&D Systems), each serially diluted three-fold in Working buffer starting at 300 ng/ml, the plate was covered, and incubated at room temperature for about 1 to 2 hours. After washing the plate five times with PBS-T, added in duplicate wells was 100 μl/well recombinant human sIL-6R(R&D Systems) from a 75 pM solution in Working buffer, the plate was covered, and incubated at room temperature for about 1 to 2 hours. After washing the plate five times with PBS-T, added 100 μl/well anti-human IL-6R-biotin (R&D Systems) from a 100 ng/ml solution in Working buffer, the plate was covered, and incubated at room temperature for about 1 to 2 hours. After washing the plate five times with PBS-T, 100 μl per well horse radish peroxidase-conjugated streptavidin (Zymed, San Francisco, Calif.) diluted 1:4,000 in Working buffer was added, the plate was covered, and incubated at room temperature for 30 minutes. After washing the plate six times with PBS-T, 100 μl per well 3,3,5,5-tetramentylbenzidine (TMB) substrate solution (Pierce, Rockford, Ill.) was added for about 3 to 5 minutes and then the reaction was stopped with 50 μl Stop buffer (1N H₂SO₄) per well. The absorbance of each well was read at 450 nm.

recombinant human TNF-α = target: T1, recombinant human TNF-α (human, UniProt P01375 77-233); assay: dual-ligand ELISA: plate-coated HIL-6, Xceptor, 2 ng/ml TNF-α, anti-human TNF-α-biotin
T1 construct: also called rhTNF-α
T1 sequence (P01375 77-233 limits assumed): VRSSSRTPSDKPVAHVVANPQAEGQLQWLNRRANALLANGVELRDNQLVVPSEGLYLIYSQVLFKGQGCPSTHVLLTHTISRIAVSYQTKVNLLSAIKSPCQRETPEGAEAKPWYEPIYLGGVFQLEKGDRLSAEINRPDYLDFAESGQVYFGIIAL
Procedure: Added to each well of a 96-well plate was 100 μl human HIL-6 solution (5 μg/ml in PBS, pH 7.2-7.4). The plate was covered, and incubated overnight at 4° C. After washing four times with PBS-T, then 250 μl Blocking buffer was added to each well, the plate was covered, and incubated at room temperature for 2 hours (or at 4° C. overnight). After washing the plate three times with PBS-T, added in duplicate wells to the HIL-6 coated plate was 100 μl/well Xceptor TNFRSF1B::HIL6 samples serially diluted three-fold in Working buffer starting at 300 ng/ml. Negative controls included human gp130-Fc chimera (R&D Systems, Minneapolis, Minn.), Enbrel® (etanercept), and Working buffer only. The plate was covered and incubated at room temperature for 1.5 hours. After washing the plate five times with PBS-T, 100 μl per well recombinant human TNF-α (R&D Systems, Minneapolis, Minn.) to 2 ng/ml in Working buffer was added, the plate was covered, and incubated at room temperature for 1.5 hr. After washing the plate five times with PBS-T, 100 μl per well anti-human TNF-α-biotin (R&D Systems) to 200 ng/ml in Working buffer was added, the plate was covered, and incubated at room temperature for 1.5 hr. […] The absorbance of each well was read at 450 nm.

B1: recombinant human sIL-6R (receptor)
chain: LAPRRCPAQEVARGVLTSLPGDSVTLTCPGVEPEDNATVHWVLRKPAAGSHPSRWAGMGRRLLLRSVQLHDSGNYSCYRAGRPAGTVHLLVDVPPEEPQLSCFRKSPLSNVVCEWGPRSTPSLTTKAVLLVRKFQNSPAEDFQEPCQYSQESQKFSCQLAVPEGDSSFYIVSMCVASSVGSKFSKTQTFQGCGILQPDPPANITVTAVARNPRWLSVTWQDPHSWNSSFYRLRFELRYRAERSKTFTTWMVKDLQHHCVIHDAWSGLRHVVQLRAQEEFGQGEWSEWSPEAMGTPWTESRSPPAENEVSTPMQALTTNKDDDNILFRDSANATSLPVQD
notes: Bought soluble receptor; also called human soluble IL6R; IL6R alone
binding result [1]: no binding (tested: Xceptor from 300 ng/ml; sIL-6R 75 pM)

binding result (recombinant human TNF-α): binds
B2: Xceptor fusion protein TRU(XT6)-1006 (Fc fusion)
chain: LPAQVAFTPYAPEPGSTCRLREYYDQTAQMCCSKCSPGQHAKVFCTKTSDTVCDSCEDSTYTQLWNWVPECLSCGSRCSSDQVETQACTREQNRICTCRPGWYCALSKQEGCRLCAPLRKCRPGFGVARPGTETSDVVCKPCAPGTFSNTTSSTDICRPHQICNVVAIPGNASMDAVCTSTSPTRSMAPGAVHLPQPVSTRSQHTQPTPEPSTAPSTSFLLPMGPSPPAEGSTGDTGEPKSSDKTHTCPPCPAPEAAGAPSVFLFPPKPKDTLMISRTPEVTCVVVDVSHEDPEVKFNWYVDGVEVHNAKTKPREEQYNSTYRVVSVLTVLHQDWLNGKAYACAVSNKALPAPIEKTISKAKGQPREPQVYTLPPSRDELTKNQVSLTCLVKGFYPSDIAVEWESNGQPENNYKTTPPVLDSDGSFFLYSKLTVDKSRWQQGNVFSCSVMHEALHNHYTQKSLSLSPGQRHNNSSLNTRTQKARHSPNSEVQLLESGGGLVQPGGSLRLSCAASGFTFSQYNMIWVRQAPGKGLEWVSWISSSGGTEYADSVKGRFTISRDNSKNTLYLQMNSLRAEDTAVYYCAKDRGYGSGSYGAYDAFDIWGQGTMVTVSSGGGGSGGGGSGGGGSQDIQMTQSPSSLSASVGDRVTITCQTSQSIDRYLNWYQQKAGEAPKLLIYAASSLQSGVPSRFSGSGSGTDFTLTISSLQPEDFASYYCQQSYRTPRTFGQGTKVEIK
notes: Xceptor TNFRSF1B::anti-HIL6
